Test results: patent publication US20240174727A1, “LONG-ACTING NATRIURETIC PEPTIDES AND USES THEREOF” (Eli Lilly and Company, priority 2022, published 2024)
Numbered stars: 1 amine (or outer) side, 2 acyl side, 3 side chain; on linkers, the order of the positions; unused ones are H or OH. Bridge positions count the residues as written; N and C are the ends. Square brackets hold non-standard residues; d marks the D form. * marks the point of attachment. thioacetal = thioacetal linkage between two cysteines (intrachain bond at the bracketed Cys); C20 diacid = O=C(O)CCCCCCCCCCCCCCCCCCC(=O)*; γGlu = O=C(O)[C@H](CCC(=O)[*:2])N[*:1]; βAla = NCCC(=O)O

T1: human NPRA (human, UniProt P16066 33-1061)
T1 sequence (looked up): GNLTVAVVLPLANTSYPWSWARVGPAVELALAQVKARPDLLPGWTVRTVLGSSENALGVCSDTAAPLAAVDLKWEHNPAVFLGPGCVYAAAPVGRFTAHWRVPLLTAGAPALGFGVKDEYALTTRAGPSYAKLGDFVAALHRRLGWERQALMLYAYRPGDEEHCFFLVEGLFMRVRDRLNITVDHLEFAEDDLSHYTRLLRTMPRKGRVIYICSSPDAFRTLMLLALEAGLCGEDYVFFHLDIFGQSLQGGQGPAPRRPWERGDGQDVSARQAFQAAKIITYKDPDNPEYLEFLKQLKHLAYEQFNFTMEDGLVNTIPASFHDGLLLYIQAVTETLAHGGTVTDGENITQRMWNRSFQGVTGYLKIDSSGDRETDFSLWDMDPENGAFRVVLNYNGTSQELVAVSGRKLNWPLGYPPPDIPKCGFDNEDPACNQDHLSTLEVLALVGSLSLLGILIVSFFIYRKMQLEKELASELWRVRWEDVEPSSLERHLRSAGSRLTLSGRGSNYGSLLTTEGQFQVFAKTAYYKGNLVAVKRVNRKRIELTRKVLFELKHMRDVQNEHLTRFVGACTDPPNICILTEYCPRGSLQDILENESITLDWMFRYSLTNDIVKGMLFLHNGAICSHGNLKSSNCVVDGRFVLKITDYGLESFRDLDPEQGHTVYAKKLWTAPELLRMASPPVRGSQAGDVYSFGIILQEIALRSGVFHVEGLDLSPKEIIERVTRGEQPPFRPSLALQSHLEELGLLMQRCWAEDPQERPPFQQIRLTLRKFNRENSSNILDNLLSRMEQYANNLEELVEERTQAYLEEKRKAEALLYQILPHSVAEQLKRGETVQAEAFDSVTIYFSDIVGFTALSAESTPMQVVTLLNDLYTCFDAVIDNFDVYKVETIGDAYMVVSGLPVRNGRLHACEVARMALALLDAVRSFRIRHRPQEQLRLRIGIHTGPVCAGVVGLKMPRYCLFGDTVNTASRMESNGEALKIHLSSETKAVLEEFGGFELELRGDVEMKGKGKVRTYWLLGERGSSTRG

T2: rat NPRA (rat, UniProt P18910 29-1057)
T2 sequence (looked up): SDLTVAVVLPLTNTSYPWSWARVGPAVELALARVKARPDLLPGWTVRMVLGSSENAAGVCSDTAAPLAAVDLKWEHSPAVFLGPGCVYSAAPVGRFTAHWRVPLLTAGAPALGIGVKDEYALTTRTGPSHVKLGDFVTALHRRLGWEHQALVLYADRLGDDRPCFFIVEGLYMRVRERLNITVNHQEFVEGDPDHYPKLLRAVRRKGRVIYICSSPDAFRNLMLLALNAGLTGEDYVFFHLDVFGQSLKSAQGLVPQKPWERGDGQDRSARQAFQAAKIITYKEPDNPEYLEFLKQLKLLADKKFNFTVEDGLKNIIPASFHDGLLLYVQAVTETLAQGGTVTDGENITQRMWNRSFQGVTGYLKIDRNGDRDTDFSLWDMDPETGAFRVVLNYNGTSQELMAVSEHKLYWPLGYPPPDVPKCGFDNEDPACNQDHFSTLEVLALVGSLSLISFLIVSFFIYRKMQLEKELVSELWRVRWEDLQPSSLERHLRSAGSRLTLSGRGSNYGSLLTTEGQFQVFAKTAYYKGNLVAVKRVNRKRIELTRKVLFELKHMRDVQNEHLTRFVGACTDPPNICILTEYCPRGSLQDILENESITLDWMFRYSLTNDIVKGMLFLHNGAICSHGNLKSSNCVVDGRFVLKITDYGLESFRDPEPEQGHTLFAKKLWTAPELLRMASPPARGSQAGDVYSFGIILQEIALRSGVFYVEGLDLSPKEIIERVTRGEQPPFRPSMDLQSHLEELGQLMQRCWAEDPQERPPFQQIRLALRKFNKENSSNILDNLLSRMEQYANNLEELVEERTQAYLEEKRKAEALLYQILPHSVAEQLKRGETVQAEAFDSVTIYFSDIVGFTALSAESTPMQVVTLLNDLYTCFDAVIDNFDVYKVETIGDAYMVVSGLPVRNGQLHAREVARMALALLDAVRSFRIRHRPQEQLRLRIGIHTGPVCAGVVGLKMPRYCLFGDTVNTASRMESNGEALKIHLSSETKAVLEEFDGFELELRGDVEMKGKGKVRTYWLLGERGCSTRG


Key:
[1] = molecular target: T1, human NPRA; assay: cell-based or functional assay
[2] = molecular target: T2, rat NPRA; assay: cell-based or functional assay

Row | Binder | cGMP Assay (EC50, pM) w/BSA, hNPRA [1] [pM] | cGMP Assay (EC50, pM) w/Casein, hNPRA [1] [pM] | cGMP Assay (EC50, pM) w/BSA, rNPRA [2] [pM] | cGMP Assay (EC50, pM) w/Casein, rNPRA [2] [pM]
1 | {C20 diacid-γGlu}-EKEKEKGEK[βAla]RSSCFGKRIDRIGHYSGLGCPSFRHGSPSSGAPPPS-NH2 (bridge 14-30 via thioacetal) [HOOC-(CH2)18-CO-(γGlu)-EKEKEKGEK-βAla-RSS[CFGKRIDRIGHYSGLGC]PSFRHGSPSSGAPPPS-NH2] | 11600 | 282 | 138000 | 1340
2 | EKXRSSCFGKRIDRIGHYSGLGCPSFRHGGKSSGAPPPS (N-terminus acylated with HOOC-(CH2)18-CO-(γGlu)-; PEG24 after EKEKEKG; βAla; thioacetal linkage between the two bracketed Cys; C-terminal amide) [HOOC-(CH2)18-CO-(γGlu)-EKEKEKG-PEG24-EK-βAla-RSS[CFGKRIDRIGHYSGLGC]PSFRHGGKSSGAPPPS-NH2] | 3490 |  |  | 
3 | EKXRSSCFGKRIDRIGHYSGLGCPSFRHGSPSSGAPPPS (N-terminus acylated with HOOC-(CH2)18-CO-(γGlu)-; PEG24 after EKEKEKG; βAla; thioacetal linkage between the two bracketed Cys; C-terminal amide) [HOOC-(CH2)18-CO-(γGlu)-EKEKEKG-PEG24-EK-βAla-RSS[CFGKRIDRIGHYSGLGC]PSFRHGSPSSGAPPPS-NH2] | 4330 | 741 | 187000 | 9630
4 | SXRRSSCFGKRIDRIGHYSGLGCPSFRHGGKSSGAPPPS (N-terminus acylated with HOOC-(CH2)18-CO-(γGlu)-; (AEEA)6 after EKEKEKG; 4Pal; thioacetal linkage between the two bracketed Cys; C-terminal amide) [HOOC-(CH2)18-CO-(γGlu)-EKEKEKG-(AEEA)6-S-4Pal-RRSS[CFGKRIDRIGHYSGLGC]PSFRHGGKSSGAPPPS-NH2] | 4470 | 527 | 312000 | 2630
5 | SXXRSSCFGGRIDRIGHYSGLGCPSFRHGSPSSGAPPPS (N-terminus acylated with HOOC-(CH2)18-CO-(γGlu)-; (AEEA)6 after EKEKEKG; 4Pal; βAla; thioacetal linkage between the two bracketed Cys; C-terminal amide) [HOOC-(CH2)18-CO-(γGlu)-EKEKEKG-(AEEA)6-S-4Pal-βAla-RSS[CFGGRIDRIGHYSGLGC]PSFRHGSPSSGAPPPS-NH2] |  | 1530 |  | 
